Experimental data as given in publication PMC548379.

B1: cold NF-kB specific competition probe (dsDNA)
DNA 1: AGTTGAGGGGACTTTCCCAGGCTTTTT
DNA 2: GCCTGGGAAAGTCCCCTCAACTTTTTT
B2: cold NF-kB nonspecific competition probe (dsDNA)
DNA 1: AGTTGAGATTACTTTCACCAGGCTTTTT
DNA 2: GCCTGTGAAAGTAATCTCAACTTTTTT

Molecular target: NF-kB p50 (rhNF-kB p50) (Homo sapiens, UniProt P19838 1-433)
Experiment: competition

NF-kB p50 (rhNF-kB p50), sequence (P19838 1-433): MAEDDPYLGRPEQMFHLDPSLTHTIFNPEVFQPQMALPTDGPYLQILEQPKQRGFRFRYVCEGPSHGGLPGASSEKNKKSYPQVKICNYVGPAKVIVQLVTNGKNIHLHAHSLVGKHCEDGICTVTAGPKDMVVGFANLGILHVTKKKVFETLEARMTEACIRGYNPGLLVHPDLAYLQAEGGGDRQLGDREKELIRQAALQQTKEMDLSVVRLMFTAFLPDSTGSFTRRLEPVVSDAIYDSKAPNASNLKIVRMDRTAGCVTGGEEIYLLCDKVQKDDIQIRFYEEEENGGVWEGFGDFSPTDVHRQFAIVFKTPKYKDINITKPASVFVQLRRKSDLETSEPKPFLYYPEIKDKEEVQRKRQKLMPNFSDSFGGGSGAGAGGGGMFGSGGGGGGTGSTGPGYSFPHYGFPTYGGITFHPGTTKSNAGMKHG

| Binder | binding result |
| --- | --- |
| B1 | binds |
| B2 | no binding |
